{
  "source": "patent US20200129630A1",
  "about": "“METHODS FOR TREATING CANCER” (BicycleRD Limited, priority 2018, published 2020)",
  "key": {"[1]": {"system": "HCC-1806", "assay": "In vitro cytotoxicity (CellTiter-Glo) HCC-1806", "assay_type": "cell-based", "details": "HCC-1806, Breast", "description": "(§1) Table 1 and Table 2 Notes: in general regression and stable disease correlated with the in vitro cytotoxicity and MT1-MMP expression. Female BALB/c mice n=3/group animals dosed twice per week except EBC-1 three per week. Tumor growth inhibition (TGI) (%)=[1−(Ti−T0)/(Vi−V0)]×100; Ti is the average tumor volume of a treatment group on a given day, TO is the average tumor volume of the treatment group on the day of treatment start, Vi is the average tumor volume of vehicle control group on the same day with Ti, and V0 is the average tumor volume of vehicle group on the day of treatment start. A one-way ANOVA was performed to compare tumor volume among groups, and when a significant F-statistics (a ratio of treatment variance to the error variance) was obtained, comparisons between groups were carried out with Games-Howell test. All data were analyzed using GraphPad Prism.* p<0.05, ** p<0.01, *** p<0.001. In vitro cytotoxicity was measured by CellTiter-Glo®, MT1-MMP membrane H score from immunohistochemistry staining, NM not measured. Tumor size on Day 1 of dosing."}, "[2]": {"assay": "nu/nu BALB/c mouse PK study", "assay_type": "in vivo", "details": "plasma, 15 mg/m2, 15 mg/m^2 IV"}, "[3]": {"assay": "Wistar Han rat GLP study toxicokinetics", "assay_type": "in vivo", "details": "plasma, Day 1 male; for Cmax: read-out: C0/Cmax", "description": "(§2) In a repeat dose experiment with BT1718 no significant gender-related differences in the TK parameters for the rat or monkey were noted. Exposure in both the rat and monkey increased approximately linearly with dose and was maintained for 28 days on repeat dosing. […] Plasma clearance and volume of distribution were similar across BT1718 dose and consistent with the PK studies."}, "[4]": {"assay": "Plasma protein binding, monkey", "assay_type": "in vitro ADME", "details": "read-out: free fraction", "description": "(§3) Plasma protein binding of BT1718 was also assessed. The mean plasma protein binding of the BT1718 peptide ranged from 87% to 98%, with the free fraction of BT1718 being 13% in human, 2.6% in rats, 7.5% in mice, 3.8% in monkey and 1.5% in dog plasma, the results had no correlation to the plasma and whole blood stability data. […] Plasma protein binding of unconjugated DM1, has previously been reported, with the unbound fraction being 7% in human and monkey and 3% in rat."}, "[5]": {"assay": "Distribution into blood cells", "assay_type": "in vitro ADME", "details": "comparable across human and all preclinical species tested"}, "[6]": {"system": "HCT-15", "assay": "In vitro cytotoxicity (CellTiter-Glo) HCT-15", "assay_type": "cell-based", "details": "HCT-15, Colorectal", "description": "as §1"}, "[7]": {"assay": "Non-GLP toxicity studies, monkey", "assay_type": "in vivo, monkeys", "source_text": "(§4) These include in vitro tissue microarray in human, rat and monkey tissues and in vitro and in vivo assessment of immunogenicity. In vivo assessments include single dose toxicity in mice and rats, multiple dose range finding studies in mice, rats, dogs and monkeys (non-GLP) and GLP-compliant multiple dose studies in rats and monkeys consisting of 28-day on study phase with a 28-day recovery period."}, "[8]": {"assay": "Stability in plasma in vitro, monkey", "assay_type": "in vitro ADME", "details": "37° C.", "description": "The stability of BT1718 was assessed in plasma and whole blood from humans, monkey, dog, mouse and rat. […] The mechanism for the difference in stability of the BT1718 peptide in whole blood between the different species is unknown."}, "[9]": {"system": "MDA-MB-231", "assay": "In vitro cytotoxicity (CellTiter-Glo) MDA-MB-231", "assay_type": "cell-based", "details": "MDA-MB-231, Breast", "description": "as §1"}, "[10]": {"system": "EBC-1 xenograft", "assay": "Dosing schedule experiment in EBC-1 xenograft mice", "details": "60 mg/m^2 once weekly", "procedure": "Anti-tumor activity was compared when equivalent total weekly doses were administered either once, twice or three times weekly or once daily."}, "[11]": {"assay": "Non-GLP toxicity studies, mouse", "assay_type": "in vivo", "source_text": "as §4"}, "[12]": {"system": "HT-29", "assay": "In vitro cytotoxicity (CellTiter-Glo) HT-29", "assay_type": "cell-based", "details": "HT-29, Colorectal", "description": "as §1"}, "[13]": {"assay": "Total DM1 in plasma and urine / excretion (preclinical)", "assay_type": "in vivo", "description": "Efficacy in this model was reduced in the conjugates containing the least cleavable linkers. […] Effective treatment was also seen with same total dose, given at on schedules from daily to a single weekly dose.\nThe concentration of total DM1 in plasma and urine was also measured following a reduction step, to detect DM1 in BT1718, any peptidyl-DM1 metabolites of BT1718, other DM1-containing mixed disulfides and free DM1. The level of total DM1 in plasma and urine increased with increasing dose, with about 85% of the total DM1 recovered in urine within 48 hours of BT1718 administration. […] An assay for free DM1 has not been successfully developed due to the instability of the free thiol in biological matrices."}, "[14]": {"system": "NCI-H292", "assay": "In vitro cytotoxicity (CellTiter-Glo) NCI-H292", "assay_type": "cell-based", "details": "NCI-H292, NSCLC", "description": "as §1"}, "[15]": {"assay": "Repeat dose toxicokinetics, rat and monkey", "assay_type": "in vivo", "details": "both sexes, plasma, intravenous, rat or monkey, irrespective of dose, read-out: Plasma t1/2", "description": "as §2"}, "[16]": {"assay": "Plasma protein binding, dog", "assay_type": "in vitro ADME", "details": "read-out: free fraction", "description": "as §3"}, "[17]": {"details": "1.2 mg/m2, Wister Han rats GLP, 1.2 mg/m^2 IV"}, "[18]": {"details": "3 mg/m2, Wister Han rats GLP, 3 mg/m^2 IV"}, "[19]": {"details": "6 mg/m2, Wister Han rats GLP, 6 mg/m^2 IV"}},
  "note": "Numbered stars: 1 amine (or outer) side, 2 acyl side, 3 side chain; on linkers, the order of the positions; unused ones are H or OH. Bridge positions count the residues as written; N and C are the ends. Square brackets hold non-standard residues; d marks the D form. Peptide text beside a SMILES is read from it. * marks the point of attachment. X1 = COc1cc2cc(c1Cl)N(C)C(=O)C[C@H](OC(=O)[C@H](C)N(C)C(=O)CCSSC(C)CCC(=O)*)[C@]1(C)O[C@H]1[C@H](C)[C@@H]1C[C@@](O)(NC(=O)O1)[C@H](OC)/C=C/C=C(\\C)C2; 1Nal = N[C@@H](Cc1cccc2ccccc12)C(=O)O; TBMB = c1c(C[*:1])cc(C[*:3])cc1C[*:2]; Tle = CC(C)(C)[C@H](N)C(=O)O; βAla = NCCC(=O)O; Sar = CNCC(=O)O",
  "data": [
    {"smiles": "COc1cc2cc(c1Cl)N(C)C(=O)C[C@H](OC(=O)[C@H](C)N(C)C(=O)CCSSC(C)CCC(=O)NCCC(=O)N(C)CC(=O)N(C)CC(=O)N(C)CC(=O)N(C)CC(=O)N(C)CC(=O)N(C)CC(=O)N(C)CC(=O)N(C)CC(=O)N(C)CC(=O)N(C)CC(=O)N[C@@H](C)C(=O)N[C@H]1CSCc3cc4cc(c3)CSC[C@H](NC(=O)[C@@H](C)NC(=O)[C@H](Cc3cccc5ccccc35)NC(=O)[C@H](CCC(=O)O)NC(=O)[C@H](CC(N)=O)NC(=O)[C@@H](C)NC1=O)C(=O)N[C@@H](CCC(=O)O)C(=O)N[C@@H](CC(=O)O)C(=O)N[C@@H](Cc1ccccc1)C(=O)N[C@@H](Cc1ccc(O)cc1)C(=O)N[C@@H](CC(=O)O)C(=O)N[C@@H](C(C)(C)C)C(=O)N[C@H](C(N)=O)CSC4)[C@]1(C)O[C@H]1[C@H](C)[C@@H]1C[C@@](O)(NC(=O)O1)[C@H](OC)/C=C/C=C(\\C)C2", "note": "(stereo partly shown) [BT1718] ({X1-βAla}-[Sar][Sar][Sar][Sar][Sar][Sar][Sar][Sar][Sar][Sar]AC[dA]NE[1Nal][dA]CEDFYD[Tle]C-NH2; linker 12-18-25 via TBMB (inferred))", "values": [
      {"measurement": "IC50", "setting": "[1]", "result": 1.4, "unit": "nM"},
      {"measurement": "AUC", "setting": "[2]", "result": "1.7 ± 0.3", "unit": "µM·h"},
      {"measurement": "clearance", "setting": "[2]", "result": "10.6 ± 1.5", "unit": "mL/min/kg"},
      {"measurement": "half-life", "setting": "[2]", "result": "25.8 ± 2.4", "unit": "min"},
      {"measurement": "Cmax", "setting": "[2]; read-out: C0/Cmax", "result": "5.8 ± 0.94", "unit": "µM"},
      {"measurement": "Vd", "setting": "[2]; read-out: Vdss", "result": "0.26 ± 0.08", "unit": "L/kg"},
      {"measurement": "AUC", "setting": "[3]; [17]", "result": 0.09, "unit": "µM·h"},
      {"measurement": "Cmax", "setting": "[3]; [17]", "result": 80, "unit": "nM"},
      {"measurement": "AUC", "setting": "[3]; [18]", "result": 0.46, "unit": "µM·h"},
      {"measurement": "Cmax", "setting": "[3]; [18]", "result": 590, "unit": "nM"},
      {"measurement": "AUC", "setting": "[3]; [19]", "result": 0.85, "unit": "µM·h"},
      {"measurement": "Cmax", "setting": "[3]; [19]", "result": 1020, "unit": "nM"},
      {"measurement": "fraction unbound", "setting": "[4]", "result": 0.038},
      {"measurement": "distribution into blood cells", "setting": "[5]", "result": "limited distribution into blood cells"},
      {"measurement": "IC50", "setting": "[6]", "result": 870, "unit": "nM"},
      {"measurement": "peripheral haematology", "setting": "[7]; monkeys 2 mg/kg, 24 mg/m^2 once weekly", "result": "significant decreases in WBCs"},
      {"measurement": "GI findings", "setting": "[7]; monkeys, single 3 mg/kg (36 mg/m^2) one week post 1.5 mg/kg dose", "result": "mild single cell necrosis of the glandular epithelial cells in the caecum"},
      {"measurement": "half-life", "setting": "[8]", "result": "> 300", "unit": "min"},
      {"measurement": "IC50", "setting": "[9]", "result": 39.8, "unit": "nM"},
      {"measurement": "weight loss", "setting": "[10]", "result": "> 10", "unit": "%"},
      {"measurement": "GI findings", "setting": "[11]; mice, single dose of 13.4 mg/kg (40.2 mg/m^2)", "result": "intestinal mucosal mitosis"},
      {"measurement": "renal findings", "setting": "[11]; mouse 3.3 mg/kg, 10 mg/m^2 three times weekly", "result": "Moderate renal tubule degeneration and epithelial mitosis"},
      {"measurement": "IC50", "setting": "[12]", "result": 13, "unit": "nM"},
      {"measurement": "route of excretion", "setting": "[13]; preliminary metabolism studies", "result": "excreted mainly through the kidney in urine"},
      {"measurement": "total DM1 recovered in urine", "setting": "[13]; within 48 hours of BT1718 administration", "result": "about 85%"},
      {"measurement": "IC50", "setting": "[14]", "result": 11.6, "unit": "nM"},
      {"measurement": "half-life", "setting": "[15]", "result": "12 to 33.6", "unit": "min"},
      {"measurement": "fraction unbound", "setting": "[16]", "result": 0.015}
    ]}
  ]
}
